Results taken from the DeepSol protein solubility set.

assay: soluble on expression in E. coli; label from the status in PepcDB or PDB records

Question: With “MGSDKIHHHHHHMIITPDTLKALFTGFKKNFQDGLKMAESQYKEIATVIPSSTASNTYGWLGQWPAFREWVGDRVFQDMKAHGYAITNKHFESSVKVNRNDIEDDNVGIYAPMMTEMGRASAVHPDELVFALLKNAHATLCYDGQNFFDTDHPVYEKVDGTGQASTVSNIFAGSEAAWYLLDTTRALKPLIYQERKAKQFTAMTADTDEGVFMRNEYRYGVDGRCNVGLGFWQMAAKSQEKLDAAGFEKAYNAMVSLKGDGGRPLAIRPNVLLVPPALENAAKELVEGDRLANGAYNPNKGKAKVIVSPWLL” as the sequence, how does the “soluble on expression in E. coli” value read?
Answer: not soluble

Question: With “MGSDKIHHHHHHMIKSISTGRTQQGYFSPVEKQMFGAALLADPDTSSPFSDVLSIAESGCSSSLLQQLTSVTKRFRHLKPEQYLLRQQDQFDSLFVVKKGALKSYRLTPEGEEIVTGFYMEGDVIGAGGLGNHKHFYSVVALEPSSLYEIPFAKLLQQSAMEPIVQQLMLKLLSQEMQADQSLRLIQLKQVKAAIASLILNIANRLTATQITLPMSRVDIANLLGVASETVCREFTRLQKQGLLSVNRKHIVINDLPQLQLAAGGDCY” as the sequence, how does the “soluble on expression in E. coli” value read?
Answer: not soluble

Question: Which “soluble on expression in E. coli” value does the source give for “MGSDKIHHHHHHMIKYIALASVVLLVGCSSTAKKPIADDPFYAPVYPDTVPTQVAATGSIYLDSQASSLYSDIRAHRVGDIITVTLKESTQASKSANNEIKKGSDLSVEPVYAGGKNISISGVPIDLGYSDSMNTKRESDADQSNSLDGSISANIIQVLSNGNLVIRGEKWISINNGDEFIRVTGMIRSEDINPDNTIDSTRVANARIQYSGTGTFADSQKVGWLSSFFMSDWWPF” here?
Answer: not soluble

Question: Which “soluble on expression in E. coli” value does the source give for “MGSDKIHHHHHHMIMEELAKKIEEEILNHVREPQIPDREVNLLDFGARGDGRTDCSESFKRAIEELSKQGGGRLIVPEGVFLTGPIHLKSNIELHVKGTIKFIPDPERYLPVVLTRFEGIELYNYSPLVYALDCENVAITGSGVLDGSADNEHWWPWKGKKDFGWKEGLPNQQEDVKKLKEMAERGTPVEERVFGKGHYLRPSFVQFYRCRNVLVEGVKIINSPMWCVHPVLSENVIIRNIEISSTGPNNDGIDPESCKYMLIEKCRFDTGDDSVVIKSGRDADGRRIGVPSEYILVRDNLVISQASHGGLVIGSEMSGGVRNVVARNNVYMNVERALRLKTNSRRGGYMENIFFIDNVAVNVSEEVIRINLRYDNEEGEYLPVVRSVFVKNLKATGGKYAVRIEGLENDYVKDILISDTIIEGAKISVLLEFGQLGMENVIMNGSRFEKLYIEGKALLK” here?
Answer: not soluble

Question: Which “soluble on expression in E. coli” value does the source give for “MGSDKIHHHHHHMINQERLVNEFMELVQVDSETKFEAEICKVLTKKFTDLGVEVFEDDTMAVTGHGAGNLICTLPATKDGVDTIYFTSHMDTVVPGNGIKPSIKDGYIVSDGTTILGADDKAGLASMFEAIRVLKEKNIPHGTIEFIITVGEESGLVGAKALDRERITAKYGYALDSDGKVGEIVVAAPTQAKVNAIIRGKTAHAGVAPEKGVSAITIAAKAIAKMPLGRIDSETTANIGRFEGGTQTNIVCDHVQIFAEARSLINEKMEAQVAKMKEAFETTAKEMGGHADVEVNVMYPGFKFADGDHVVEVAKRAAEKIGRTPSLHQSGGGSDANVIAGHGIPTVNLAVGYEEIHTTNEKIPVEELAKTAELVVAIIEEVAK” here?
Answer: not soluble

Question: Which “soluble on expression in E. coli” value does the source give for “MGSDKIHHHHHHMINRKFINTVLAKRSTRSGLCQSATRTSRWLAVAIAILLANNSHADTSQTNVAAPAKTSACYLDGLDEQLQCGKITVLENPQLPDGKQIDIHFAILPAIKNTHPNEALLAIAGGPGQSAIENAAFFNRMLTKVRQQRDILLIDQRGTGKSNILSCDDDTTELLSMNDDDLDIIAMTEKCLGQIDADVSQYGSNTALTDFEAVREYLGYQKLHLYGISYGTRMAQLYMRHYPEALLTVTLDGVVPMQQSVVAIGDSIERGLNVLWRDCKSTPACQQQFPDLADEYNKVDQLLATAPISQQVRDPQTDELSEFLLTRSKFSGAIRMAMYMANIRALIPHAIHQAAQGNYQPILGIYTLTADSTGIAMGMHASVVCGEDIHRITDQMRKDAKESYISGNMLEGLEKTCQAWPIPQVDDNFSEPILSDIPTLLLSGELDPATPPNWGALAQEKLTKSKHFIAPYATHGVAGQSCGNDLVAQLVDQGSVKDINGECLQKDVRRSFYLNANTVEALPVIDTPTDIETTAPANTAADKE” here?
Answer: not soluble

Question: With “MGSDKIHHHHHHMINYHPDQHLLSLHAKGELPLSMSIAISAHAELCPHCQQQLDQMTIALSEQQFESAVKTQSVDTNDNHQLDALLEQLLNSTLDTLEIEQASTIDTIEDNSVSIKGQHYPLPKVFRKQINASWQGIGKVSRLRLDTGEPQARASLLHIAANGEIPEHTHKGAELTLLLAGEFSDCYNTYKPGDFMLLDKEHQHSPKTLEGCLCYTIVDAPLYFTKGFSKLLNPIGDLLY” as the sequence, how does the “soluble on expression in E. coli” value read?
Answer: not soluble

Question: With “MGSDKIHHHHHHMIRVLVLYFTRGGHTAKIASAIADQLKNRGAQVDLVDINSAAATRINWPDYQVVALGACVLYGTYDKTVFQFIEQHNQALSALPNSFFCVNVVARNPEKRIPENNKYLQKFIALSPWTPADLKIIAGKVDYPSWPWYDRLAIQLIMKMTKGPTDPKSVIDYTDWEDVKIYADHLLDLTEVTATT” as the sequence, how does the “soluble on expression in E. coli” value read?
Answer: not soluble

Question: With “MGSDKIHHHHHHMISNQILQNTIDGLKGITRTDLCVIDVEGKILAATFPNAEAFIEPAQAFVASPADSQVINGCQFFKVFDDHQLEYVLLAYGDSEDVYMIGKIASFQIQNLLVAYKERFDKDNFIKNLLLDNLLLVDIYNRAKKLHIDIEVRRVVFIVETNREKDGNELEKIRSLFGGKSKDFVTAVDEKNIIVVKELAENETYDDLRKTAEVILNLFRSEADGVHIAYGTVINELKEVSRSYKEARMALDVGKIFFEERNIIAYSQLGIGRLIYQLPIPLCKMFIKEIFDGKSPDDFDEEILSTINKFFENSLNVSETSRQLYIHRNTLVYRLDKLQKSTGLDLRVFEDAITFKIALMVVKYMKYMESMDY” as the sequence, how does the “soluble on expression in E. coli” value read?
Answer: not soluble

Question: Which “soluble on expression in E. coli” value does the source give for “MGSDKIHHHHHHMITFIGHVSKDVNVVDGKREIAYGGGVVMGAITSSLLGVKTKVITKCTREDVSKFSFLRDNGVEVVFLKSPRTTSIENRYGSDPDTRESFLISAADPFTESDLAFIEGEAVHINPLWYGEFPEDLIPVLRRKVMFLSADAQGFVRVPENEKLVYRDWEMKEKYLKYLDLFKVDSREAETLTGTNDLRESCRIIRSFGAKIILATHASGVIVFDGNFYEASFRSWSLEGRTGRGDTCTAAFLVGFVFKKMSIEKATKFAAAVTSVKMRHPGPLRREDLEAISGDQYF” here?
Answer: soluble

Question: Which “soluble on expression in E. coli” value does the source give for “MGSDKIHHHHHHMITVSNVSVQFGKRVLFNDVNLKFTSGNCYGIIGANGAGKSTFLRTIYGDLDPTTGTIALGPGERLSVLSQDHFKWDAYTVMDTVMMGHTVLWDIMKQREVLYAKEDFTDEDGLKVSELEEKFAELDGWNAESDAAMLLSGLGIKEDKHYTLMGELSGKEKVRVMLAQALYGNPDNLLLDEPTNDLDMETVTWLEEYLSNFEHTVLVVSHDRHFLDSVCTHTVDIDYGKINMFAGNYSFWYESSQLALRQQQNQKAKAEEKKKELEEFIRRFSANVAKSKQTTSRKKMLEKLNVEEIKPSSRKYPGIIFTPEREPGNQILEVSGLSKKTEEGVVLFSDVNFNIEKGDKVVFLSRNPRAMTAFFEIINGNMKPDAGQFNWGVTITTAYLPLDNTDFFNTDLNLVDWLSQFGEGNEVYMKGFLGRMLFSGEEVLKKVSVLSGGEKMRCMIARMQLRNANCLILDTPTNHLDLESIQAFNNNLKTYKGNILFSSHDHEFIQTVANRIIELTPNGIIDKMMEYDEYITSDHIKELRAKMYGDK” here?
Answer: not soluble

Question: Which “soluble on expression in E. coli” value does the source give for “MGSDKIHHHHHHMIVVKPSPGSAQSIPANANGPKWDVGEAVSQLSWDDLRIIKTLSDCSNRAATAKKLGINVSTVSRRVAQVEKTLGVALFDHRKAGYLLTAEGVELRALAERVELDIVSVTRRVSRAGQGPLGKLRITTSDSLLLYFLTPIIADFKALNEGITIEVLVGNQTLSLARDESDIAVRATKKPTDTLVGRKLANIAWAAYGSVKQAAITDPFAEGQAWVSYSGGLCGLKATSYVECRVPSELISYRTDSVAAASAAIAAGLGFGFLPCMLGDITPGLVRAGPVVQELQDELWLLTHQDIRKSWRVKAFMTFCAAAVADLKPLVEGQQAIPAS” here?
Answer: not soluble

Question: With “MGSDKIHHHHHHMIWNIDYFCNLRCKSCNAWQGKIFFPEDQIDKHLQEMKNNGIKIVSVTGGEPTLNKNVVDIIRKLKENHFFTHIATNGTNPYVLRKLYPYLDAVTISLDSNIPEEHNAYRGLKIFDTVVSNIKEAKSKVKIVTANMLVTNFNYFKVGEIADFANNELGVPLSMCFPEQDAYYFQDFQVTNDMIRQAFSYAYENYHKHVFGNMRSYYKEAVDFIDGKGSRACKAGQEIFYTDYRGKVHPCFEHVEVVLNKKPTWDIYDNKCHKCFTECFLEPSIDHTFEAASLIGKIWWFNHVKRRDIKYIETKRPKQVPS” as the sequence, how does the “soluble on expression in E. coli” value read?
Answer: not soluble
